Assay results published in US20260008818A1, “CYCLIC PEPTIDE OR SALT THEREOF, AND USES THEREOF” (FUJIFILM Corporation, priority 2023, published 2026).
Bridge positions count the residues as written; N and C are the ends. Ends that are not written are not given here. COCH2 = acetyl group that carries the bridge

Columns and labels:
[1] = target: T1, FGFR1 Protein, Human, Recombinant (His Tag) (Sino Biological, 10616-H08H) (human, UniProt P11362 22-376); test: SPR, peptide immobilized, 1 umol/L FGFR
T1 construct: bought reagent; not shown: His tag
T1 sequence (looked up): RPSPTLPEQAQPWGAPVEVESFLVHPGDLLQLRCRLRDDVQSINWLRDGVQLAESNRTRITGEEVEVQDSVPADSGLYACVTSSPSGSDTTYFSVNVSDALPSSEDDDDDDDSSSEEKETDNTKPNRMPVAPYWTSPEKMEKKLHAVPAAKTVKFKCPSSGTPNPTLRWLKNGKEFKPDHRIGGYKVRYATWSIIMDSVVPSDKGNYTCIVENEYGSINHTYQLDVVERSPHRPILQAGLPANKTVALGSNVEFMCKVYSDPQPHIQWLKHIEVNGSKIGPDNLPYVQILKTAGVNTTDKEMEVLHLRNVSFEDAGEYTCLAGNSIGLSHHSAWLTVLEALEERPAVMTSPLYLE
Description: (§1) A CM5 sensor chip (Cytiva, 29149603) was set in Biacore-T200 (manufactured by Cytiva) which is a surface plasmon resonance device, and an HBS-EP buffer (Cytiva, BR100826) was added as a running buffer at a flow rate of 10 μL/min to equilibrate the flow channel. Next, 70 μL of a mixed aqueous solution of 0.2 mol/L 1-(3-dimethylaminopropyl)-3-ethylcarbodiimide (EDC) and 0.05 mol/L N-hydroxysuccinimide (NHS) was added to activate the sensor chip. Then, a cyclic peptide prepared to 2 mg/mL in HBS-EP buffer was added thereto to perform immobilization at about 200 RU. Thereafter, the blocking treatment was performed with an ethanolamine solution. In addition, in another flow channel of the same sensor chip, blocking treatment was performed immediately after activation without […].
(§2) After various FGFRs (FGFR1 Protein, Human, Recombinant (His Tag) (Sino Biological, 10616-H08H), FGFR3 Protein, Human, Recombinant (ECD, His Tag) (Sino Biological, 16044-H08H), FGFR4 Protein, Human, Recombinant (His Tag) (Sino Biological, 10538-H08H)) diluted with HBS-EP to 1 μmol/L at 25° C. was added to each flow channel of the cyclic peptide-immobilized sensor chip prepared above, for 10 minutes, HBS-EP was allowed to flow as a running buffer for 30 minutes, and the binding of various FGFRs to the cyclic peptide was measured. […] The binding amount of the cyclic peptide was evaluated from the difference between the measured value of Biacore-T200 in the flow channel in which the cyclic peptide was immobilized and the measured value of Biacore-T200 in the flow channel in which the cyclic peptide was not immobilized, in a case where 1 μmol/L FGFR was allowed to flow.
(§3) The binding amount of FGFR evaluated above was normalized to the binding amount of FGFR molecules per one molecule of the cyclic peptide using the molecular weights of the cyclic peptide and FGFR, and the binding affinity to FGFR was evaluated according to the following evaluation criteria.

[2] = target: T2, FGFR4 Protein, Human, Recombinant (His Tag) (Sino Biological, 10538-H08H) (human, UniProt P22455 22-369); test: SPR, peptide immobilized, 1 umol/L FGFR
T2 construct: bought reagent; not shown: His tag
T2 sequence (looked up): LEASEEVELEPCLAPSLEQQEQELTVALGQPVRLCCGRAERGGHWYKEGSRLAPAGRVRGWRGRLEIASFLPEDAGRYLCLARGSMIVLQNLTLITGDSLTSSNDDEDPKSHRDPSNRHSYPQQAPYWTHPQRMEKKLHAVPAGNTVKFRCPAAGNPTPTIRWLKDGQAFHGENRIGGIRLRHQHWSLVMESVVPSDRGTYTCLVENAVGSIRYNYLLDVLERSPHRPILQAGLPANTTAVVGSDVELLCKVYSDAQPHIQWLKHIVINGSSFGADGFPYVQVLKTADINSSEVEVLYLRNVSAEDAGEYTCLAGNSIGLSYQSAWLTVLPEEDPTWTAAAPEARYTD
Description: as §1, §2, §3

[3] = target: T3, FGFR3 Protein, Human, Recombinant (ECD, His Tag) (Sino Biological, 16044-H08H) (human, UniProt P22607 23-375); test: SPR, peptide immobilized, 1 umol/L FGFR
T3 construct: extracellular domain; bought reagent; not shown: His tag
T3 sequence (looked up): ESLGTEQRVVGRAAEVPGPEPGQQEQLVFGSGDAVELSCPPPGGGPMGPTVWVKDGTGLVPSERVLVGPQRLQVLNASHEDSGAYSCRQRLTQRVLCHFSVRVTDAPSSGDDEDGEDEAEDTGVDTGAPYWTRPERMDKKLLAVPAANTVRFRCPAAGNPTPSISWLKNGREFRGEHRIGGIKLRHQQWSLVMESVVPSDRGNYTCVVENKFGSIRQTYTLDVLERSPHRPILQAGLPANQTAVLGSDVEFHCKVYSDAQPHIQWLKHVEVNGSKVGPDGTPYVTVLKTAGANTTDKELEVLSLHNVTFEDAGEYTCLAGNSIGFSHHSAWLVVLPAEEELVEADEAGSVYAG
Description: as §1, §2, §3

[4] = target: T4, Recombinant Human FGFR1 alpha (IIIc) Fc Chimera Protein, CF (R&D systems, 658-FR-050) (human, UniProt P11362 22-376); test: SPR, FGFR1-Fc immobilized, 10 nmol/L peptide
T4 construct: bought reagent; not shown: Fc of the bought chimera
T4 sequence (looked up): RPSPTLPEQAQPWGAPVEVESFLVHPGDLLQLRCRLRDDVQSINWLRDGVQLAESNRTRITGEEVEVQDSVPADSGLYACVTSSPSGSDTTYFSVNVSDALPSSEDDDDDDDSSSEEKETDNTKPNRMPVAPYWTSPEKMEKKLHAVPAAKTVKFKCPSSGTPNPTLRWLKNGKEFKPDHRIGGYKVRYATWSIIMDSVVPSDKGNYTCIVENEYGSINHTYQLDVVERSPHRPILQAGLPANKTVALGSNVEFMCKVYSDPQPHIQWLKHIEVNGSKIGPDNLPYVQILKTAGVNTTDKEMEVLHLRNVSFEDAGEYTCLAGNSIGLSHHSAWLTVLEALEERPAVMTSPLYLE
Description: A CM5 sensor chip (Cytiva, 29149603) was set in Biacore-T200 (manufactured by Cytiva) which is a surface plasmon resonance device, and an HBS-EP buffer (Cytiva, BR100826) was added as a running buffer at a flow rate of 10 μL/min to equilibrate the flow channel. Next, 70 μL of a mixed aqueous solution of 0.2 mol/L 1-(3-dimethylaminopropyl)-3-ethylcarbodiimide (EDC) and 0.05 mol/L N-hydroxysuccinimide (NHS) was added to activate the sensor chip. Then, Recombinant Human FGFR 1 alpha (IIIc) Fc Chimera Protein CF (R&D systems, 658-FR-050) prepared at 50 nmol/L in an Acetate 4.5 buffer (Cytiva, BR100350) was added thereto to perform immobilization at about 5000 RU. Thereafter, the blocking treatment was performed with an ethanolamine solution. In addition, in another flow channel of the same sensor chip, blocking treatment was performed immediately after activation without immobilizing FGFR.
A cyclic peptide diluted to 10 nmol/L using HBS-EP was added to each flow channel of the FGFR-immobilized sensor chip produced above at 25° C. for 10 minutes, then HBS-EP was allowed to flow as a running buffer for 30 minutes, and the binding of the cyclic peptide to FGFR was measured. Thereafter, a regeneration treatment of removing the bound cyclic peptide was performed by repeating the flow of a regeneration liquid in which sodium chloride powder was dissolved in Glysine 1.5 (Cytiva, BR100354) to a final concentration of 0.15 mol/L for 1 minute in each flow channel twice. The binding amount of the cyclic peptide was evaluated from the difference between the measured value of Biacore-T200 in the flow channel in which FGFR was immobilized and the measured value of Biacore-T200 in the flow channel in which FGFR was not immobilated, in a case where a 10 nmol/L cyclic peptide was allowed to flow.

binding amount (SPR, FGFR molecules bound per molecule of cyclic peptide at 1 umol/L FGFR) [1]: ≥ 0.05 moleculesoffgfr/onemoleculeofthecyclicpeptide
binding amount (SPR, FGFR molecules bound per molecule of cyclic peptide at 1 umol/L FGFR) [2]: ≥ 0.05 moleculesoffgfr/onemoleculeofthecyclicpeptide
binding amount (SPR, FGFR molecules bound per molecule of cyclic peptide at 1 umol/L FGFR) [3]: 0.01 to 0.05 moleculesoffgfr/onemoleculeofthecyclicpeptide
binding amount (SPR, cyclic peptide molecules bound per one molecule of FGFR at 10 nmol/L peptide) [4]: ≥ 0.7 moleculesofthecyclicpeptide/onemoleculeoffgfr
Binder: HCSYERLQFHGHEAPFRVK(COCH2)VKKK (thioether 2-19; also: acetyl defined on Orn side-chain amine, here on K, chemically synthesized) [SEQ ID NO: 382]
